Results as given in article PMC11532496.

Columns and labels:
[1] = target: non-stabilized CE1 design Env SOSIP trimer (CH505.M5.G458Y N386R without F14 and 2P) (HIV-1) (UniProt Q2N0S6); assay: SPR
[2] = target: CH848-d949 DE3 design Env SOSIP trimer (N408K/N442A) (HIV-1); assay: SPR

Molecule | fold change of ka against CH505.M5.G458Y [1] | fold change of ka against the unmutated CH848-d949 trimer [2]
CH235.12 Fab | 2 fold | –
DH270 lineage intermediate I5.6 Fab (Fab, V domains shown) VH: QVQLVQSGAEVKKPGASVKVSCKASGYTFTDYYIHWVRQAPGQGLEWMGWINPNTGRTNSAQKFQGRVTMTRDTSISTAYMELSRLRSDDTAVYYCARGGWIGLYYDSSGYPNFDYWGQGTLVTVSS VL: QSALTQPASVSGSPGQSITISCTGTSYDVGSYNLVSWYQQHPGKAPKLMIYEVSKRPSGVSNRFSGSKSGNTASLTISGLQAEDEADYYCCSYAGSSTVVFGGGTKLTVL | – | 45 fold
